Consider 30 sequences from the nanobody polyreactivity screen of Harvey et al. (2022).

A short description of the series: yeast display, Sf9 membrane polyspecificity reagent, FACS + sequencing; frameworks hold sequencing errors. The essentials: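 Using colony PCR, genes from sorted yeast display clones were amplified, then sequenced on MiSeq at 2 × 250 and filtered by CDR length. The clones had been stained with 10% biotinylated, detergent-solubilized Sf9 membrane reagent for 1 hour at 4 °C and sorted by FACS into low and high (top ~1%) gates on anti-HA and streptavidin fluorescence. Polyreactivity labels come from the gate of origin.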
For “QVQLVESGGGLVQAGGSLRLSCAASGRIFPDNAMGWYRQARGKERELVAAMTYSGGSTSYADSVKGRFTISRDNAKNTVYLQMNSLKPEDTAVYYCNKGGGTSYDYVRVDKYPGDYWGQGTQVTVSS”, the “polyreactivity (PSR sort gate)” value is listed as “low polyreactivity”.

Turning to “QVQLVESGGGLVQAGGSLRLSCAASGRIFPENAMGWYRQAPGKERELVAAINNNDGDTYYADSVKGRFTISRDNAKNTVYLQMNSLKPEDTAVYYCAADEAYWLSYVWGIGYDYWGQGTQVTVSS”, the “polyreactivity (PSR sort gate)” value is given as “low polyreactivity”.

For “QVQLVESGGGLVQAGGSLRLSCAASGRIFPEYAMGWYRQAPGKERELVAAITSSGRTYYADSVKGRFTISRDNAKNTVYLQMNSLKPEDTAVYYCAASFRRYYRWDYGFWGQGTQVTVSS”, the “polyreactivity (PSR sort gate)” value is “high polyreactivity”.

Take “QVQLVESGGGLVQAGGSLRLSCAASGRIFPGKAMGWYRQAPGKEREFVASINWSRGSTFYADSVKGRFTISRDNAKNTVYLQMNRLIPEDTAVYYCSARTFGYYRSRSYNYWGQGTQVTVSS”: the “polyreactivity (PSR sort gate)” value is “high polyreactivity”.

As to “QVQLVESGGGLVQAGGSLRLSCAASGRIFPGYAMGWYRQAPGKERELVASISSGGRTYYADSVKGRFTISRDNAKNTVYLQMNSLIPEDTAVYYCNSRHSSYSFRYDYWGQGTQVTVSS”, the “polyreactivity (PSR sort gate)” value is recorded as “low polyreactivity”.

Consider “QVQLVESGGGLVQAGGSLRLSCAASGRIFPGYTMGWYRQAPGKERELVAGISRSGGRTYYADSVKGRFTISRDNAKNTVYLQMNSLKPEDTAVYYCADDGYPGRRYTGMDYWGQGTQVTVSS”, for which the “polyreactivity (PSR sort gate)” value is “high polyreactivity”.

As to “QVQLVESGGGLVQAGGSLRLSCAASGRIFPHYSMGWYRQAPGKERELVAANSWSGSSTYYADSVKGRFTISRDNAMNTVYLQMNSLKPEDTAVYYCNAVRRGIGYDYGYWGQGTQVTVSS”, the “polyreactivity (PSR sort gate)” value is on record as “high polyreactivity”.

As to “QVQLVESGGGLVQAGGSLRLSCAASGRIFPKYAMGWYSQAPGKERELVAGITKRVGSTYYADSVKGRFTISRDNAKNTVYLQMNSLKPDDTAVYYCAADYRYLIDYLDPEKEGMDYWGQGTQVTVSS”, the “polyreactivity (PSR sort gate)” value is “low polyreactivity”.

Consider “QVQLVESGGGLVQAGGSLRLSCAASGRIFPLYAMGWYRKAPGKERELVAAISYSGGSTYYADSVKGRFTISRDNAKNTVYLQMISLKPEDTSVYYCAAQTARVSYRMGYWGQGTQVTVSS”, for which the “polyreactivity (PSR sort gate)” value was “high polyreactivity”.

Consider “QVQLVESGGGLVQAGGSLRLSCAASGRIFPLYAMGWYRQAPGKERELVAAITWRAGITYYADSVKGRFTISRDNAKNTVYLQMNSLKPEDTAVYYCAARFVRGRGFAYGYWGQGTQVTVSS”, for which the “polyreactivity (PSR sort gate)” value was “high polyreactivity”.

For “QVQLVESGGGLVQAGGSLRLSCAASGRIFPLYAMGWYRQAPGKERELVARITYSGGSTYYADSVKGRFTISRDNAKNTVYLQMNSLKPEDTAVYYCAKDTYGRSTRNGYWGQGTQVTVSS”, the “polyreactivity (PSR sort gate)” value is reported as “low polyreactivity”.

On to “QVQLVESGGGLVQAGGSLRLSCAASGRIFPPYDMGWYRQAPGKETELVAAISYRGGSTYYADSVKGRFTISRDNAKNTVYLQMNSLKPEVTAVYYCNVGSRGGWDASDYDYWGQCTQVTVSS”, for which the “polyreactivity (PSR sort gate)” value is listed as “high polyreactivity”.

Regarding “QVQLVESGGGLVQAGGSLRLSCAASGRIFPRNAMGWYRQAPGKERELVAAISSGGGSTYYADSVKGRFTISRDNAKNTVYLQMNSLKPEDTAVYYCAKRAGWAGWYYRNDYWGQGTQVTVSS”, the “polyreactivity (PSR sort gate)” value is listed as “high polyreactivity”.

As for “QVQLVESGGGLVQAGGSLRLSCAASGRIFPRNAMGWYRQAPGKERELVASITSGGSTNYADSVKGRFTNSRDNAKNTVYLQMNSLKPEDTAVYSCAALYRQVTSPYRYYYWGQGTQVTVSS”, the “polyreactivity (PSR sort gate)” value was “high polyreactivity”.

As to “QVQLVESGGGLVQAGGSLRLSCAASGRIFPRNTMGWYRQAPGKERELVAAISQSGGRTYYADSVKGRFTISRDYAKNTVYLQMNSLKPEDTAVYYCAAREYRYDMYYWGQGTQVTVSS”, the “polyreactivity (PSR sort gate)” value is reported as “high polyreactivity”.

As to “QVQLVESGGGLVQAGGSLRLSCAASGRIFPRYAMGWYRQAPGKERELVARITRRGGITYYADSVKGRFTISRDNAKNSVYLQMNSLKPEDTAVYYCNVDYYRGGDFSYGYDYWGQGTQVTVSS”, the “polyreactivity (PSR sort gate)” value is reported as “high polyreactivity”.

For the sequence “QVQLVESGGGLVQAGGSLRLSCAASGRIFPRYAMGWYRQAPGKERELVARITRRGGITYYADSVKGRFTISRDNAKNTVYLQRNSLIPEDTAVYYCNVDYYSGGEFSYGYDYWGQGTQVTVSS”, the “polyreactivity (PSR sort gate)” value is recorded as “high polyreactivity”.

Consider “QVQLVESGGGLVQAGGSLRLSCAASGRIFPRYAMGWYRQAPGKERELVASISGTGSRTYYADSVKGRFTISRDNAKNTVYLQMNSLKPEDTAVYYCAAYSFRKLDYYWGQGTQVTVSS”, for which the “polyreactivity (PSR sort gate)” value is given as “high polyreactivity”.

In the case of “QVQLVESGGGLVQAGGSLRLSCAASGRIFPTYTMGWYRQAPGKERELVAAIRRGGGRTYYADSVKGRFTISRDNAKNTVYLQMNSLKPEDTAVYYCAAPFYRQSLIEYDYWGQGTQVTVSS”, the “polyreactivity (PSR sort gate)” value is listed as “high polyreactivity”.

For “QVQLVESGGGLVQAGGSLRLSCAASGRIFPTYTMGWYRQAPGKERELVAAIRRGGGRTYYADSVKGRFTISRDNAKNTVYLQMNSLKPEDTAVYYCNKDVYGYSRTGPRGYDYWGQGTQVTVSS”, the “polyreactivity (PSR sort gate)” value is given as “high polyreactivity”.

On to “QVQLVESGGGLVQAGGSLRLSCAASGRIFPTYTMGWYRQAPGKERELVAHINRGGGSTYYADSVKGRFTISRDNAKYTVYLQMNSLKPEDTAVYYCAVDTYAYRGVSYWSERTYYYWGQGTQVTVSS”, for which the “polyreactivity (PSR sort gate)” value is given as “low polyreactivity”.

“QVQLVESGGGLVQAGGSLRLSCAASGRIFPVNAMGWYRQAPGKERELVARISWRGGTYYADSVKGRFTISRDNAKNTVYLQMNSLKPEDTAVYYCAATLPSTSYWYHYGYWGQGTQVTVSS”: the “polyreactivity (PSR sort gate)” value was “high polyreactivity”.

On to “QVQLVESGGGLVQAGGSLRLSCAASGRIFPVYAMGWYRQAPGKERELVATISYSGSSTYYADSVKGRFTISRDNAKNTVYLQMNSLKPEDTAVYYCNADAFGPPGVQYYYWGQGTQVTVSS”, for which the “polyreactivity (PSR sort gate)” value is “low polyreactivity”.

Consider “QVQLVESGGGLVQAGGSLRLSCAASGRIFPVYVMGSYREAPGKEREFVASISWRGGSTFYADSVKGRFTISRDNAKNTVYLQMNSLKPEDTAVYYCAADYWSSDSSRGTMYYWGQGTQVTVSS”, for which the “polyreactivity (PSR sort gate)” value is given as “low polyreactivity”.

Regarding “QVQLVESGGGLVQAGGSLRLSCAASGRIFPWNAMGWYRQAPGKERELVAAISFSAGRTYYADSVKGRFTISRDNAKTTVYLQMTSLKPEDTAVYFCTKASYWGSGFDYWGQGTQVTVSS”, the “polyreactivity (PSR sort gate)” value is given as “low polyreactivity”.

Regarding “QVQLVESGGGLVQAGGSLRLSCAASGRIFPWNDMGWYRQAPGKERELVAAITYRGGRTYYADSVKGRFTISRDNAKNTVYLQMNSLKPEDTAVYYCAKTRYFSVGPHWDYYYWGQGTQVTVSS”, the “polyreactivity (PSR sort gate)” value is “high polyreactivity”.

In the case of “QVQLVESGGGLVQAGGSLRLSCAASGRIFPWYAMGWYRQAPGRVREFLAVISRSGGSTYYADSVKGRFTISRDNAKNTVYLQMNSLKPEDTAVYYCAADGKFEYDYWGQGTQVTVSS”, the “polyreactivity (PSR sort gate)” value was “low polyreactivity”.

Consider “QVQLVESGGGLVQAGGSLRLSCAASGRIFPYCAMGWYRQAPGKEREFVAAITSSGGSTYYADSVKGRFTISRDNAKNTVYLQMNSLKREDTAVYFCFAVRHYALYAGRPYDYWGQGTEVTVSS”, for which the “polyreactivity (PSR sort gate)” value is given as “low polyreactivity”.

For the sequence “QVQLVESGGGLVQAGGSLRLSCAASGRIFPYNAMGWSRQAPGKERELVASITSGGGSTYYADSVKGRFTISRDNAKNTVYLQMKSLKPEDTAVYYCSTRGYAWSSDKFGYWGQGTQVTVSS”, the “polyreactivity (PSR sort gate)” value is “high polyreactivity”.

For “QVQLVESGGGLVQAGGSLRLSCAASGRIFPYNAMGWYRHAPGKERELVAAITWSGGRTYYADSVKGRFTISRDNAKNTVYLQMNSLKPEDTAVYYCAASYRGRTNDYWGQGTQVTVSS”, the “polyreactivity (PSR sort gate)” value is “high polyreactivity”.
